B1: N-terminally truncated NATA1 (19-228, NATA1Δ) (enzyme, Arabidopsis thaliana, UniProt Q9ZV05 19-228, looked up)
chain: TGHRMFSRIRLATPTDVPFIHKLIHQMAVFERLTHLFVATESGLASTLFNSRPFQAVTVFLLEISPSPFPTTHDASSPDFTPFLETHKVDLPIEDPDREKFLPDKLNDVVVAGFVLFFPNYPSFLAKQGFYIEDIFMREPYRRKGFGKLLLTAVAKQAVKLGVGRVEWIVIDWNVNAINFYEQMGAQVFKEWRLCRLTGDALQAIDKLNI
B2: full-length NATA2 (enzyme, Arabidopsis thaliana, UniProt Q9ZV06 1-236, looked up)
chain: MAAAAPPPPPTAAPEPNMVAPLISPIGHPMFSRIRLATPSDVPFIHKLIHQMAVFERLTHLFSATESGLASTLFTSRPFQSFTVFLLEVSRSPFPATITSSPSPDFTPFFKTHNLDLPIDDPESYNFSPDMLNDVVVAGFVLFFPNYSSFLSKPGFYIEDIFVREPYRRKGFGSMLLTAVAKQAVKMGYGRVEWVVLDWNVNAIKFYEQMGAQILQEWRVCRLTGDALEAFDQVNI
B3: N-terminally truncated NATA2 (30-236, NATA2Δ) (enzyme, Arabidopsis thaliana, UniProt Q9ZV06 30-236, looked up)
chain: MFSRIRLATPSDVPFIHKLIHQMAVFERLTHLFSATESGLASTLFTSRPFQSFTVFLLEVSRSPFPATITSSPSPDFTPFFKTHNLDLPIDDPESYNFSPDMLNDVVVAGFVLFFPNYSSFLSKPGFYIEDIFVREPYRRKGFGSMLLTAVAKQAVKMGYGRVEWVVLDWNVNAIKFYEQMGAQILQEWRVCRLTGDALEAFDQVNI

Target: the molecule itself
Test: crystal structure

Stoichiometry N, 2:
B1
B2
B3

From publication doi:10.1101/2024.03.04.583282 (bioRxiv, 2024)
